We go through 5 molecules from doi:10.1101/2021.06.29.450403 (bioRxiv, 2021).

Assay [1] deals with T1, Chicken calmodulin (CaM) (chicken, UniProt P62149 1-149). In words: NMR titration.
The target of assay [2] is recombinant rAQP4ct protein (complete cytosolic C-terminal domain of human AQP4, residues 254-323) (human, UniProt P55087-1 254-323). In words: steady-state intrinsic Trp fluorescence.
The target in assay [3] is T1, Chicken calmodulin (CaM). Kind of assay: steady-state intrinsic Trp fluorescence.

In general, stoichiometry N refers to the number of molecules, sites or subunits per partner or assembly. With Ac-VEFKRRFKEAFSKAAQQTKGSYMEV-NH2 [human AQP4ct synthetic peptide (residues 256-280)], in the assay with Chicken calmodulin (CaM) [1], the “apparent Kd, C-lobe of CaM (first binding event)” value was found to be 3.6 µM; the “apparent Kd, N-lobe of CaM (second binding event)” value worked out at 114 µM; the “stoichiometry N” value is 2. For orientation: Kd means the equilibrium constant for the complex coming apart. A lower Kd goes with a tighter complex. Take Ac-TARRWGKSGPLSTRENIMVAFKGVWT-NH2 [human AQP4nt synthetic peptide (residues 6-31, two Cys modified to Ser)]: in the assay with Chicken calmodulin (CaM) [1], the Kd is 3.4 µM and the “stoichiometry N” value stood at 1.

B1: CaM bound AQP4nt-W30A peptide (complex)
chain 1: […]
chain 2: PTARRWGKSGPLSTRENIMVAFKGVAT
Take B1: the binding result in assay [2] is on record as “binds”.

As to PTARRWGKSGPLSTR [recombinant rAQP4nt6-19 truncated peptide], the binding result with Chicken calmodulin (CaM) [1] is reported as “binds”. On to PTARRWGKSGPLSTRENIMVAFKGVAT [recombinant rAQP4ntW30A peptide], for which the binding result with Chicken calmodulin (CaM) [3] is listed as “binds”.
